Patent US20050276757

System: p120 catenin expressed from a transfected plasmid (exogenous p120, HA-tagged in Example 1)

With “ZC1 kinase, over-expressed from a plasmid (active full-length ZC1)” the “in vitro phosphorylation (32P-ATP, autoradiography)” value was “p120 immunoprecipitated from cells co-expressing ZC1 also showed phosphorylation of p120 in vitro by associated ZC1”.
